The text below walks through data of patent US20260078171A1.

Assay in all cases: BLI (Octet), Fab, monovalent
Experiment [1] deals with SARS-CoV-2 Beta RBD (SARS-CoV-2).
Experiment [2] deals with SARS-CoV-2 Omicron BA.1 spike S1 subunit (SARS-CoV-2).
Experiment [3] addresses SARS-CoV-2 Omicron BA.2 RBD (SARS-CoV-2).

B1: VYD222 Fab (Fab, V domains shown)
VH: EVQLVESGGGLVKPGGSLRLSCAASGFTFGSYEMNWVRQAPGKGLEWVSSISEDGYSTYYPDSLKGRFTISRDSAKNSLYLQMNSLRADDTAVYYCARDFGGDTAWAGTGFTYWGQGTLVTVSS
VL: QSVLTQPPSVSGAPGQRITISCTGSSSNIGAGYDVHWYQQLPGTAPKLLIYGSSSRNYGVPDRFSGSKSGTSASLAITGLQAEDEADYYCQSYDSDLGVLYTFGTGTKVTVL
Consider B1, for which the dissociation constant Kd in experiment [1] was determined as 1.74 nM; in experiment [2], 18.1 nM; in experiment [3], 13.5 nM.
